Measured values taken from paper PMC5800818, “A Numb–Mdm2 fuzzy complex reveals an isoform-specific involvement of Numb in breast cancer” (The Journal of Cell Biology, 2018).
Non-standard residues stand in square brackets, D forms with d. No end group written: not given here. pY = N[C@@H](Cc1ccc(OP(=O)(O)O)cc1)C(=O)O

Assays:
Settings in all cases: both partners purified
[1] = biological target: T1, Numb PTBi (Numb^20–175), His fusion (human, UniProt P49757 20-175); experiment: pull-down; GST-Mdm2 fragments (1 µM) on GSH beads, purified Numb fragments (5 µM in Fig. 1 F; 2 and 4 µM or 1 and 2 µM in Fig. 6), 2 h at 4 °C, 10 mM Hepes pH 7.5, 0.15 M NaCl, 5% glycerol, 0.1% Tween-20; Coomassie staining
T1 construct: source: bacterially expressed as His fusion, purified
T1 sequence (looked up): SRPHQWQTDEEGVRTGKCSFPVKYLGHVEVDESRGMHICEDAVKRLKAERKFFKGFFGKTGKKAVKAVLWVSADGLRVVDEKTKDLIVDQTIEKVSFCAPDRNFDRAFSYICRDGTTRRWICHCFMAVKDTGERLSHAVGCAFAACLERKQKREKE

[2] = biological target: T2, Numb-PTBi (Numb^20–175), purified (human, UniProt P49757 20-175); experiment: as above
T2 construct: For NMR the protein was isotope-labelled; source: E. coli BL21 Rosetta pLysS, purified (NTA beads, Superdex-200)
T2 sequence (looked up): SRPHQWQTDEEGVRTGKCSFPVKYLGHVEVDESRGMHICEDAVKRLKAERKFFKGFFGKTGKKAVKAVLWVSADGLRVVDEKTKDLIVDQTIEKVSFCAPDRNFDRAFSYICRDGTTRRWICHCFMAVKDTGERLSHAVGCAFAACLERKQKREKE

[3] = biological target: T2, Numb-PTBi (Numb^20–175), purified; experiment: crystal structure; Numb-PTBi with a 1.3 molar excess of GPpY peptide; hanging drops at 20 °C, 25% PEG 3350, 0.2 M lithium sulfate, 0.1 M Bis-Tris pH 6; space groups F222 and P212121
[4] = biological target: T3, rhodamine-labeled Mdm2^216–302 (human, UniProt Q00987-11 216-302, rhodamine label (site not stated)); experiment: fluorescence polarisation; 50 nM rhodaminated Mdm2 216–302 with increasing concentrations of the ligand; 10 mM Tris-HCl pH 7.5, 0.15 M NaCl, 0.5 mM EDTA, 1 mM DTT
T3 construct: as m32 with the label; source: purified, rhodaminated in vitro
T3 sequence (Q00987 210-296): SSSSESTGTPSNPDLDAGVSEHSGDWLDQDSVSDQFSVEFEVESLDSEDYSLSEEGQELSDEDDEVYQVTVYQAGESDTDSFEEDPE

B1: GST-Mdm2^250–290 (domain or fragment, human, UniProt Q00987-11 250-290, looked up)
chain: QFSVEFEVESLDSEDYSLSEEGQELSDEDDEVYQVTVYQAG
notes: Mdm2 residues 250–290, a short stretch of the acidic domain; also called minimal Mdm2 fragment; source: E. coli BL21 Rosetta, purified (Glutathione Sepharose)
[1]
  binding result: binds
[2]
  binding result: binds

B2: GPpY phosphopeptide (AYIGPpYL) (peptide)
peptide: AYIGP[pY]L
notes: also called GPpY peptide; source: synthetic peptide (United Biosystems)
[3]
  binding result: binds

B3: Numb-PTBo, purified (domain or fragment)
chain: SRPHQWQTDEEGVRTGKCSFPVKYLGHVEVDESRGMHICEDAVKRLKATGKKAVKAVLWVSADGLRVVDEKTKDLIVDQTIEKVSFCAPDRNFDRAFSYICRDGTTRRWICHCFMAVKDTGERLSHAVGCAFAACLERKQKREKE
[4]
  fold reduction of binding affinity against PTBi: ~30 fold
